Numbering of substitutions follows the chain as printed.
T1: full-length human DR6 on transfected cells (human, UniProt O75509 42-655)
T1 construct: also called Death Receptor-6; TNFRSF21
T1 sequence: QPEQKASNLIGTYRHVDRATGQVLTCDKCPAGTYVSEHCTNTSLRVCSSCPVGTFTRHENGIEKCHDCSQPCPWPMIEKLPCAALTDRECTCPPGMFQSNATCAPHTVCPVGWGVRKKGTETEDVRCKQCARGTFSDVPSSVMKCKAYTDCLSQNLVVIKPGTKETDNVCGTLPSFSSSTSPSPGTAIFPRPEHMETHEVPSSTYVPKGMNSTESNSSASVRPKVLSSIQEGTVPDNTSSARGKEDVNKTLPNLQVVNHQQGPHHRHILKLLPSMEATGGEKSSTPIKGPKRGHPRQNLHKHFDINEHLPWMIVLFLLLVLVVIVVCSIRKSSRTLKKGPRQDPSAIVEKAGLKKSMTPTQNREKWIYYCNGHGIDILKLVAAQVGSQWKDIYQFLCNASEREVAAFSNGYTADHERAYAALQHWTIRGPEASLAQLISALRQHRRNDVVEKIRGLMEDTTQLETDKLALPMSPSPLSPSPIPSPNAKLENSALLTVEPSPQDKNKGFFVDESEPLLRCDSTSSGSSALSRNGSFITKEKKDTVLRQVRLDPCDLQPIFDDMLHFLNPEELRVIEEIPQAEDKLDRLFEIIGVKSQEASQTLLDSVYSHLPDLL

T2: full-length rat DR6 on transfected cells (rat, UniProt D3ZF92 42-655)
T2 construct: whole, on cells
T2 sequence (looked up): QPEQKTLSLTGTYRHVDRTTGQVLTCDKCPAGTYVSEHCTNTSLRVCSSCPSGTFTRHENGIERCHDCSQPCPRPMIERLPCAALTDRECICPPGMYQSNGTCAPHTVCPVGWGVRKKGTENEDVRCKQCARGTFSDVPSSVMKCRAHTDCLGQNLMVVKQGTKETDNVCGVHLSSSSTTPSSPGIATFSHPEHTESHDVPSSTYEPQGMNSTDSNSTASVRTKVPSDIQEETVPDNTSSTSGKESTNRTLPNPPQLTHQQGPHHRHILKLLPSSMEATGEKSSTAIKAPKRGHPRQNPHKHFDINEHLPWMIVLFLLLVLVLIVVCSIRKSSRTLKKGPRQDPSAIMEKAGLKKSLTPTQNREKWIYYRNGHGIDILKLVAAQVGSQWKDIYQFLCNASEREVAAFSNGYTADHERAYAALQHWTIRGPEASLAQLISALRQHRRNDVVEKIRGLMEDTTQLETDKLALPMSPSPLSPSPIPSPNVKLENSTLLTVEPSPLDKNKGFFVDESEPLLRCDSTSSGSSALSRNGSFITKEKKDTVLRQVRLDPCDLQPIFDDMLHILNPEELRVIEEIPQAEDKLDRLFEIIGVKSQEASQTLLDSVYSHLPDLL

T3: full-length mouse DR6 on transfected cells (mouse, UniProt Q9EPU5 42-655)
T3 sequence: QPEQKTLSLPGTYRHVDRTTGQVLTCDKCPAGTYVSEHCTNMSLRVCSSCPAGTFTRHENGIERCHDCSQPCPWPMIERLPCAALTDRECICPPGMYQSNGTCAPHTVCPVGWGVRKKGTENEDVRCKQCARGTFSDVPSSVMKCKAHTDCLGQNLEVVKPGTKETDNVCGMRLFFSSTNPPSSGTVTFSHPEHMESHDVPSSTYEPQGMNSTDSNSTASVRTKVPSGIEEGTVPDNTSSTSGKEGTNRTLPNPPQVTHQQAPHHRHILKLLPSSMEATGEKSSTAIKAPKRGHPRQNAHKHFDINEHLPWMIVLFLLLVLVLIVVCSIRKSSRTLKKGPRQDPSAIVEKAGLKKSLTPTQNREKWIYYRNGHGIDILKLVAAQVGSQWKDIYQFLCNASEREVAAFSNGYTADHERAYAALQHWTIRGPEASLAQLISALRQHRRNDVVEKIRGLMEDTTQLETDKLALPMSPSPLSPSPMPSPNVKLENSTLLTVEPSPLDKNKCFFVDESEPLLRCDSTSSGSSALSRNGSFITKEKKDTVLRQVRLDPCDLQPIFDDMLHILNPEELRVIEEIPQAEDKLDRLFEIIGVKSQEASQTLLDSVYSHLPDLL

B1: M51-H09 (Fab, V domains shown)
VH: EVQLLESGGGLVQPGGSLRLSCAASGFTFSPYSMTWVRQAPGKGLEWVSSIVPSGGKTWYADSVKGRFTISRDNSKNTLYLQMNSLRAEDTAVYYCARTNLSYFDYWGQGTLVTVSS
VL: QSELTQPPSASGSPGQSVTISCTGTSNDVGSYNYISWFQQHPGKAPKLMIYEVNKRPSGVPDRFSGSKSDNTASLTVSGLQAEDEADYYCTSYAGSHKWVFGGGTKLTVL
notes: Human Fab from a phage display library
B2: M53-E04 (Fab, V domains shown)
VH: EVQLLESGGGLVQPGGSLRLSCAASGFTFSNYEMSWVRQAPGKGLEWVSSIYSSGGETLYADSVKGRFTISRDNSKNTLYLQMNSLRAEDTAVYYCARDGAADYWGQGTLVTVSS
VL: QSELTQPPSASGTPGQWVTISCSGSTSNIGNNYVYWYQQLPGTAPKLLIYTNNQRPSGVPDRFSGSKSGTSASLAISGLRSEDEADYYCATWDDSLYAPVFGGGTKVTVL
notes: as for B1
B3: 1P5D10.2 (antibody, V domains shown)
VH: EVQLVESGGGLVKPGGSLKLSCAASGFTFSDYYMYWVRQTPEKRLEWVATISDGGLYTYYQDSVKGRFTISRDNAKNNLYLQMSSLKSEDTAMYYCAREDDYDGDFYTMDYWGQGTSVTVSS
VL: QIVLTQSPAIMSASPGEKVTITCSASSSVSYMHWFQQKPGTSPKLWIYSTSNLASGVPARFSGSGSGTSYSLTISRMEAEDAATYYCQQRSSYPLTFGAGTKLELK
notes: Murine hybridoma monoclonal antibody; subgroup III(D) heavy chain, subgroup VI kappa light chain
B4: M50-H01 (Fab, V domains shown)
VH: EVQLLESGGGLVQPGGSLRLSCAASGFTFSDYPMMWVRQAPGKGLEWVSRISPSGGHTIYADSVKGRFTISRDNSKNTLYLQMNSLRAEDTAVYYCAKDWHGGGAFDIWGQGTMVTVSS
VL: DIQMTQSPSSVSASVGDRVTITCRASQGIRSWLAWYQQKPGKAPKLLIYDASTLQSGVPSRFRGGGSGTDFTLTISSLQPEDFATYYCQQSYSTPLTFGGGTKVEIK
notes: as for B1
B5: M66-B03 (Fab, V domains shown)
VH: EVQLLESGGGLVQPGGSLRLSCAASGFTFSPYWMSWVRQAPGKGLEWVSVIYPSGGHTYYADSVKGRFTISRDNSKNTLYLQMNSLRAEDTAVYYCARPGFGAAFDYWGPGTLVTVSS
VL: B4 VL with R30S, D50A, T53S, R63S, G65S, S91A, Y92N, T94F
B6: M67-G02 (Fab, V domains shown)
VH: EVQLLESGGGLVQPGGSLRLSCAASGFTFSRYSMQWVRQAPGKGLEWVSVISPSGGSTMYADSVKGRFTISRDNSKNTLYLQMNSLRAEDTAVYYCARESYSSSWYSGYYYYYGMDVWGQGTTVTVSS
VL: DIQMTQSPASLSASVGDRVTITCRASQTIAGYLNWYQQTPGKAPNLLIYDASRLQSGVPSRFSGSGSGTDFTLSISGLQPEDFGTYYCQQSYTIPLTFGGGTKVEIK
notes: as for B1
B7: M73-C04 (Fab, V domains shown)
VH: EVQLLESGGGLVQPGGSLRLSCAASGFTFSPYAMVWVRQAPGKGLEWVSSISPSGGGTGYADSVKGRFTISRDNSKNTLYLQMNSLRAEDTAVYYCAREGWNYYYGMDVWGQGTTVTVSS
VL: DIQMTQSPATLSLSPGERATLSCRASQSVSSYLAWYQQKPGQAPRLLIYDASNRATGIPARFSGSGSGTDFTLAISSLQPEDSATYYCLQDFIYPYTFGQGTKLEIR
notes: as for B1
B8: M63-E10 (Fab, V domains shown)
VH: EVQLLESGGGLVQPGGSLRLSCAASGFTFSQYKMSWVRQAPGKGLEWVSSISSSGGTNYADSVKGRFTISRDNSKNTLYLQMNSLRAEDTAMYYCARRNYGDRPYWYFDLWGRGTLVTVSS
VL: DIQMTQSPSTLSASVGDRVTITCRASQTISRWLAWYQHKPGKAPKLLIYKTSNLESGVPSRFSGSGSGTEFTLTISSLQPDDFATYYCQQYKSYSITFGPGTKVDIK
notes: as for B1
B9: M53-F04 (Fab, V domains shown)
VH: EVQLLESGGGLVQPGGSLRLSCAASGFTFSEYTMHWVRQAPGKGLEWVSVISSSGGRTVYADSVKGRFTISRDNSKNTLYLQMNSLRAEDTAVYYCARDLSNYMDYWGQGTLVTVSS
VL: DIQMTQSPATLSLSPGERATLSCRASQTVSNYLAWYQQKPGQAPRLLIYDASNRATGIPARFSGSGSGTDFTLTISSLEPEDFAVYYCQQRSKWLSFGGGTKVEIK
notes: as for B1
B10: M62-B02 (Fab, V domains shown)
VH: EVQLLESGGGLVQPGGSLRLSCAASGFTFSMYIMNWVRQAPGKGLEWVSSIVSSGGWTFYADSVKGRFTISRDNSKNTLYLQMNSLRAEDTAVYYCARGHYGMDVWGQGTTVTVSS
VL: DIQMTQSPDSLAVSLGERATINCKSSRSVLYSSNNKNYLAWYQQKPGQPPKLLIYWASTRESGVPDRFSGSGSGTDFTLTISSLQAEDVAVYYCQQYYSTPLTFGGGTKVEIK
notes: as for B1
B11: M72-F03 (Fab, V domains shown)
VH: B10 VH with M31Q, I33M, N35S, S50V, V52Y, S53P, W57S, F59H
VL: DIQMTQSPDSLAVSLGERATINCKSSQSVLYSSNNKNYLAWYQHKAGQPPKLLIHWASSRASGVPDRFSGSGSGTDFTLTISSLQAEDVAVYYCQQFYSLPLTFGGGTKVEIR
notes: as for B1
B12: 1P2F2.1 (antibody, V domains shown)
VH: QVQLQQSGPEVARPGASVKLSCKASGYTFTDYYLNWVKQRTGQGLEWIGEIYPGNNHTYYNEKFKGKATLTADNSSSTAYLQFSSLTSEDSAVYFCTRGVIKWGQGTLVTVSV
VL: DILMTQSPSSMSVSLGDTVSITCHASQGIRNSIGWLQQKPGKSFKGLIYHATTLEDGVPSRFTGSGSGADFSLTISSLESEDFADYYCVQYAQFPYTFGGGTKLEIK
notes: Murine hybridoma monoclonal antibody; subgroup II(A) heavy chain, subgroup V kappa light chain

Key:
[1] = target: T1, full-length human DR6 on transfected …; assay: FACS on 293E cells transfected with full-length human DR6
[2] = target: T2, full-length rat DR6 on transfected cells; assay: FACS on HEK293 cells transfected with full length rat DR6, serial dilutions of antibody
Protocol: (§1) Six million HEK293 cells were transfected with 10 ug of plasmid DNA, which encoded full length human, rat, or mouse DR6. Three days after transfection, approximately 50,000 cells in 200 μL of PBS, 1% BSA, 0.1% NaN3 (FACS buffer) were analyzed. Cells were pelleted and resuspended in 150 μl of serial dilutions of anti-DR6 antibodies in FACS buffer. Samples were incubated for 1 hour on ice with occasional agitation and then washed three times. Bound DR6 antibody was visualized with PE-labeled goat F(ab)₂ anti-human Fab (for Dyax Fabs) or anti-mouse IgG specific antibody (for monoclonal antibodies) (Jackson Labs).

[3] = target: T1, full-length human DR6 on transfected …; assay: FACS on HEK293 cells transfected with full length human DR6, serial dilutions of antibody
Protocol: as §1

[4] = target: T3, full-length mouse DR6 on transfected …; assay: FACS on HEK293 cells transfected with full length mouse DR6, serial dilutions of antibody
Protocol: as §1

[5] = target: T2, full-length rat DR6 on transfected cells; assay: FACS on 293T cells transfected with rat DR6 (FIG. 13A)
Protocol: as §1

[6] = target: T1, full-length human DR6 on transfected …; assay: FACS on 293T cells transfected with human DR6 (FIG. 13B)
Protocol: as §1

[7] = target: T3, full-length mouse DR6 on transfected …; assay: FACS on 293T cells transfected with mouse DR6 (FIG. 13C)
Protocol: as §1

Binder	binding result [1]	further results
B1	binds	
B2	binds	
B3		binding result [2]: binds; binding result [3]: binds; binding result [4]: binds
B4	binds	
B5	binds	
B6	binds	
B7	binds	
B8	binds	
B9	binds	
B10	binds	
B11	binds	
B12		binding result [5]: binds; binding result [6]: binds; binding result [7]: binds
